Article PMC7617805, “Mechanism of DNA capture by the MukBEF SMC complex and its inhibition by a viral DNA mimic” (Cell, 2025)

How the values were obtained:
[1] = target: the molecule itself; test: cryo-EM structure; wild-type P. thracensis MukBEF dimers 150 nM with nicked plasmid pFB526, 5 mM ATP, 10 mM MgCl2, optionally Na3VO4 or BeSO4/NaF; datasets pooled; open-gate and DNA capture states
[2] = target: the molecule itself; test: cryo-EM structure; E. coli MukEF 1 uM with 4 uM gp5.9 in 20 mM Tris, 200 mM NaCl, 0.5 mM TCEP, 0.05 % β-octyl glucoside, pH 7.4; focused refinement on gp5.9/MukE

B1: P. thracensis MukB, wild type, as subunit of the MukBEF complex used for cryo-EM (natural protein, Photorhabdus thracensis, UniProt A0A0F7LRY2 1-1482, looked up)
chain: MIERGKFRSLTLVNWNGFFARTFDLDELVTTLSGGNGAGKSTTMAAFVTALIPDLTLLHFRNTTEAGATSGSRDKGLHGKLRAGVCYSTLDVINSRHQRVVVGVRLQQVAGRDRKVDIKPFMIQGLPTAIQPTQLLTENVGERQARVLPLNELKDRLDEMEGVQFKQFNSITDYHAQMFDLGVIPKRLRSASDRSKFYRLIEASLYGGISSAITRSLRDYLLPENSGVRKAFQDMEAALRENRITLEAIRVTQSDRDLFKHLITEATSYVSADYMRHANERRTHLDEALALRGELFGSHKQLATEQYRHVEMARELAEQSGASSDLETDHQAASDHLNLVQTAMRQQEKIDRYQVDLEELSYRLEEQTDVVEEAGELQAEYEARTEATEQEVDELKSQLADYQQALDVQQTRAIQYQQALQALERARELCRLPDLSVDNAEEWLETFQAKEQQATEALLALEQKLSVADAAHNQFEQAYQLVKNIVGETSRSEAWQSARELLRDWPSQRHLADRVQPLRMRLSELEQRLNNQQNAERLLSEFCKRQGRQYQAEDLEALQNELEARQEALSLSVNEGGERRMEMRQELEQLKQKIQSLTARAPVWLAAQDTLNQLCEQSGETLASSNDVTEYMQQLLEREREATVERDEVAAQKRELEKQIERLSQPSGAEDSRMIALAERFGGVLLSEIYDDITIDDAPYFSALYGPARHGIVVPDLSLVRPHLETLEDCPEDLYLIEGDPQSFDDSVFNAEEQTNAVLVKSSDRQWRYSRYPELPLFGRAARENRLEALNLERDALAERYATLSFDVQKIQRAHQAFSQFVGKHLSVAFDTDPEAEIRELRQRHTELEREVSRFEDQTQQQRQQYAQAKESLTTLNRLIPQVTLLLDETLIDRVEEVREEMDEAQEAARFLQQHGSALTKLEPMVAVLQSDPQQHEQLQQDYETAKHSQHQAKQQAFALVEIVQRRVHFSYSDSAGMLSENADLNDKLRQRLEHAESDRSRAREQLRQQQAQYSQFNQVLASLKSSYETKQDMLKELLQEMKDIGVQADANAEMRARERRDRLHEALSVNRSRVNQLEKQIAFCEAEMENVQKKLRKLERDYYQIREQVVSAKAGWCAVMRMVKDNGVERRLHRRELAYMEGGALRSMSDKALGALRLAVADNEHLRDALRLSEDPKRPERKVQFFIAVYQHLRERIRQDIIRTDDPVDAIEQMEIELARLTEELTAREQKLAISSKSVANIIRKTIQREQNRIRMLNQGLQAVSFGQVRGVRLNVNVRESHAILLDVLSEQQEQHQDLFNSQRLTFSEAMAKLYQRLNPQVDMGQRLPQTIGEELLDYRNYLELDVEVNRGSDGWLKAESGALSTGEAIGTGMSILVMVVQSWEEESRRLRGKDISPCRLLFLDEAARLDAKSIATLFELCERLQMQLIIAAPENISPEKGTTYKLVRKVFKNHEHVHVVGLRGFGQDAPATQLISDVTA
notes: MukB of Photorhabdus thracensis; the MukB chain of m14; also called κ-MukB; ν-MukB; source: E. coli BL21-Gold(DE3), polycistronic pFB403, purified as the MukBEF complex; not shown: His6-SUMO, N-terminal, cleaved
binding result [1]: binds

B2: T7 gp5.9 (untagged after cleavage, from insect cells) (natural protein, bacteriophage T7)
chain: MSRDLVTIPRDVWNDIQGYIDSLERENDSLKNQLMEADEYVAELEEKLNGTS
notes: gp5.9 of bacteriophage T7; Used as 'gp5.9 dimers' in SEC; source: Hi5 insect cells, purified (Talon, 3C cleavage, HisTrap flowthrough, MonoQ)
stoichiometry N [2]: 2
